We go through 2 molecules from publication PMC5994690, “Virulence Associated Gene 8 of Bordetella pertussis Enhances Contact System Activity by Inhibiting the Regulatory Function of Complement Regulator C1 Inhibitor” (Frontiers in Immunology, 2018).

Sequences and labels used below:
B1: Full length complement regulator C1 inhibitor (C1-INHFL), serum-derived (natural protein, UniProt P05155 23-500, looked up)
chain: NPNATSSSSQDPESLQDRGEGKVATTVISKMLFVEPILEVSSLPTTNSTTNSATKITANTTDEPTTQPTTEPTTQPTIQPTQPTTQLPTDSPTQPTTGSFCPGPVTLCSDLESHSTEAVLGDALVDFSLKLYHAFSAMKKVETNMAFSPFSIASLLTQVLLGAGENTKTNLESILSYPKDFTCVHQALKGFTTKGVTSVSQIFHSPDLAIRDTFVNASRTLYSSSPRVLSNNSDANLELINTWVAKNTNNKISRLLDSLPSDTRLVLLNAIYLSAKWKTTFDPKKTRMEPFHFKNSVIKVPMMNSKKYPVAHFIDQTLKAKVGQLQLSHNLSLVILVPQNLKHRLEDMEQALSPSVFKAIMEKLEMSKFQPTLLTLPRIKVTTSQDMLSIMEKLEFFDFSYDLNLCGLTEDPDLQVSAMQHQTVLELTETGVEAAAASAISVARTLLVFEVQQPFLFVLWDQQHKFPVFMGRVYDPRA
modifications: glycosylated (58 kDa protein/28 kDa sugar by SEC-MALS)
notes: Purified from serum (Complement Technology/Complement Technologies, Tyler, TX); source: bought: Complement Technology (serum-derived)
B2: Recombinant his-tag passenger domain of virulence associated gene 8 (Vag8) of Bordetella pertussis (domain or fragment)
chain: VTAAQRIDGGAAFLGDVAIATTKASEHGINVTGRTAEVRVTGGTIRTSGNQAQGLRVGTENAPDNTALGASVFLQNLIIETSGTGALGVSVHEPQGGGGTRLSMSGTTVRTRGDDSFALQLSGPASATLNDVALETAGQQAPAVVLWQGAQLNAQGLVVQVNGAGVSAIHAQDAGSFTLSGSDITARGLEVAGIYVQEGMQGTLTGTRVTTQGDTAPALQVEDAGTHVSMNGGALSTSGANSPAAWLLAGGSAQFRDTVLRTVGEASHGVDVAAHSEVELAHAQVRADGQGAHGLVVTRSSAMVRAGSLVESTGDGAAALLESGHLTVDGSVVHGHGAAGLEVDGESNVSLLNGARLSSDQPTAIRLIDPRSVLNLDIKDRAQLLGDIAPEAQQPDGSPEQARVRVALADGGTWAGRTDGAVHTVRLLDRGVWTVTGDSRVAEVKLEGGTLAFAPPAQPKGAFKTLVATQGISGTGTIVMNAHLPSGTADVLVAPQGFGDRQVLVVNNTDDGTESGATKVPLIEDEQGHTAFTLGNMGGRVDAGARQYELTASEAQADKARTWQLTPTNEL

For assay [1], the target named is B2. The assay is described as follows: SEC-MALS; S200 increase 10/300 column, 50 mM Tris pH 7.5, 150 mM NaCl, 0.4 mL/min; individual proteins and the complex. The settings on record: both partners purified. For orientation: SEC sorts molecules by how far they enter the pores of the column.
In assay [2] the target is B1. Nature of the assay: SPR; Biacore T200; Vag8 passenger domain immobilised by amine coupling on a CM5 chip; C1-INH 2.5-160 nM injected at 30 µL/min; 25°C, 10 mM HEPES pH 7.4, 150 mM NaCl, 3 mM EDTA, 0.005% P20; dissociation 300 s. The settings on record: both partners purified.

Usually stoichiometry N stands for a count of units in the complex or per binding partner. Turning to B1, the “stoichiometry N” value in assay [1] is 1.

By Kd is commonly meant the free concentration of one partner at which half of the binding sites on the other are occupied at equilibrium, for simple one-to-one binding. Consider B2, for which, in assay [2], the Kd was at most 1 nM.
